Earlier results, collected in paper PMC5576018.

Target: CSL (Homo sapiens) (UniProt Q06330)
Chain of UniProt Q06330 (Q06330 whole entry): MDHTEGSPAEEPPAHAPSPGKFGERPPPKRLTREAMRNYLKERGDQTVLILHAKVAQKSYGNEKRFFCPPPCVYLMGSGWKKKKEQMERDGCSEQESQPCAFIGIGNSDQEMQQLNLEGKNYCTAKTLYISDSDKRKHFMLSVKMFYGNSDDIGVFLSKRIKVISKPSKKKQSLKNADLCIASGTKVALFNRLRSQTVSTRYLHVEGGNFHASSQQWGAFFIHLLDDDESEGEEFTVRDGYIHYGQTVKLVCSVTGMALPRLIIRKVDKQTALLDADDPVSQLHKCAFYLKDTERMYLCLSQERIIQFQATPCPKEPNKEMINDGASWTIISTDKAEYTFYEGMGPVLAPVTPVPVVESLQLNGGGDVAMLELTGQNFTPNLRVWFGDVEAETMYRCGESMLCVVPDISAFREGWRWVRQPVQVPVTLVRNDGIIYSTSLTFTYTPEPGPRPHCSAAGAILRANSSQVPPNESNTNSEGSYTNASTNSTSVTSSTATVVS

For Notch RAM RAM (from UniProt P46531), the Kd is listed as 0.022 µM.
